Measurements reported in PMC5335569, “Biophysical studies suggest a new structural arrangement of crotoxin and provide insights into its toxic mechanism” (Scientific Reports, 2017).

Biological target: the molecule itself
Test: small angle X-ray scattering

B1: Crotoxin B (enzyme)
chain: HLLQFNKMIKFETRKNAVPFYAFYGCYCGWGGQGRPKDATDRCCFVHDCCYGKLAKCNTKWDIYRYSLKSGYITCGKGTWCEEQICECDRVAAECLRRSLSTYKNGYMFYPDSRCRGPSETC
  stoichiometry N: 4
